Measured values reported in patent US10184115B2, “Mutated cellobiose dehydrogenase with increased substrate specificity” (DIRECTSENS GMBH, priority 2012, dated 2019).

Assays:
[1] = substrate: OC[C@H]1O[C@H](O[C@H]2[C@H](O)[C@@H](O)C(O)O[C@@H]2CO)[C@H](O)[C@@H](O)[C@@H]1O; assay: purified protein, by the assay type; conditions: other: apparent, wt flavodehydrogenase domain, DCIP assay, pH 5.5, 30° C.
[2] = substrate: OC[C@H]1O[C@H](O[C@H]2[C@H](O)[C@@H](O)C(O)O[C@@H]2CO)[C@H](O)[C@@H](O)[C@@H]1O; assay: Steady-state kinetics, DCIP assay: M. thermophilum CDH N313S; assay type: biochemical, Myriococcum thermophilum; conditions: other: apparent, pH 4.5, 30° C.
Method: (§1) Enzyme activity was assayed at 30° C. using either the DCIP (Karapetyan et al., 2005 Journal of Biotechnology 121: 34-48) or cytochrome c (Canevascini et al., 1991, European Journal of Biochemistry 198: 43-52) as electron acceptor. […] Stock solutions of carbohydrates used for kinetic measurements were prepared in the respective buffer and allowed to stand overnight for mutarotation, while stock solutions of electron acceptors were prepared in water and immediately used. The reaction stoichiometry is 1 for the two-electron acceptor DCIP (1 mole of DCIP reduced per mole of carbohydrate oxidized), but 2 for the one-electron acceptor cytochrome c. Kinetic constants were calculated by fitting the observed data to the Henri-Michaelis-Menten equation or to the adapted model for substrate inhibition using nonlinear least-squares regression and the program SigmaPlot (Systat Software, San Jose, Calif., USA).
(§2) Enzymes were purified to homogeneity in a two-step purification. The sample was loaded on a 20 mL PHE Sepharose FF column (HR26/20) equilibrated with 50 mM Na-acetate buffer pH 5.5 containing 20% ammonium sulfate. Proteins were eluted by increasing the concentration of the elution buffer (50 mM Na-acetate buffer pH 5.5) from 0 to 100% in 5 column volumes and fractions containing CDH activity were pooled. After diafiltration with a polyethersulfone flat-stack cross flow module with a cut-off of 10 kDa (Viva Flow 50, Sartorius, Göttingen, Germany) until conductivity of 5 mS cm^−1 in 20 mM Na-acetate pH 5.5 the samples were loaded on a 20 mL Q-Source column (HR26/20) equilibrated with a 20 mM Na-acetate buffer pH 5.5. CDH was eluted by increasing the concentration of the elution buffer (50 mM Na-acetate buffer pH 5.5 containing 0.5 M NaCl) from 0 to 100% in 50 column volumes. Fractions were tested for CDH activity and pooled according to the highest Reinheitszahl (RZ, calculated from the absorbance ratio 420 nm/280 nm). Purified enzymes were concentrated and diafiltered in 50 mM citrate buffer, pH 5.5, aliquoted and kept at 4° C. for further use.

[3] = substrate: OC[C@H]1O[C@H](O[C@H]2[C@H](O)[C@@H](O)C(O)O[C@@H]2CO)[C@H](O)[C@@H](O)[C@@H]1O; assay: Steady-state kinetics, DCIP assay: M. thermophilum CDH N721D; assay type: biochemical, Myriococcum thermophilum; conditions: other: apparent, pH 4.5, 30° C.
Method: as §1, §2

B1: Corynascus thermophilus CDH flavodehydrogenase domain, recombinant wild type (wtDH), amino acids 249-787 of SEQ ID NO: 7 (Thermothelomyces fergusii) (protein)
chain: YDYIVVGAGAGGITVADKLSEAGHKVLLIEKGPPSTGLWNGTMKPEWLEGTDLTRFDVPGLCNQIWVDSAGIACTDTDQMAGCVLGGGTAVNAGLWWKPHPADWDDNFPHGWKSSDLADATERVFSRIPGTWHPSQDGKLYRQEGFEVISQGLANAGWREVDANQEPSEKNRTYSHSVFMFSGGERGGPLATYLASAAQRSNFNLWVNTSVRRAIRTGPRVSGVELECLADGGFNGTVNLKEGGGVIFSAGAFGSAKLLLRSGIGPEDQLEIVASSKDGETFISKNDWIKLPVGHNLIDHLNTDLIITHPDVVFYDFYAAWDNPITEDKEAYLNSRSGILAQAAPNIGPLMWEEVTPSDGITRQFQWTCRVEGDSSKTNSTHAMTLSQYLGRGVVSRGRMGITSGLTTTVAEHPYLHNDGDLEAVIQGIQNVVDALSQVPDLEWVLPPPNTTVEEYVNSLIVSPANRRANHWMGTAKMGLDDGRSGGSAVVDLNTKVYGTDNLFVVDASIFPGMSTGNPSAMIVIVAEQAAQRILSLRY
Km [1]: 2.89 mM

B2: Myriococcum thermophilum cellobiose dehydrogenase (CDH, SEQ ID NO: 1) variant N313S (Thermothelomyces myriococcoides; N313S) (protein)
chain: QNNVPNTFTDPDSGITFNTWGLDEDSPQTQGGFTFGVALPSDALTTDASEFIGYLKCARNDESGWCGISLGGPMTNSLLITAWPHEDTVYTSLRFATGYAMPDVYEGDAEITQVSSSVNSTHFSLIFRCKNCLQWSHGGSSGGASTSGGVLVLGWVQAFDDPGNPTCPEQITLQQHDNGMGIWGAQLNTDAASPSYTDWAAQATKTVTGDCEGPTETSVVGVPVPTGVSFDYIVVGGGAGGIPAADKLSEAGKSVLLIEKGFASTANTGGTLGPEWLEGHDLTRFDVPGLCSQIWVDSKGIACEDTDQMAGCVLGGGTAVNAGLWFKPYSLDWDYLFPDGWKYNDVQPAINRALSRIPGTDAPSTDGKRYYQEGFEVLSKGLAAGGWTSVTANNAPDKKNRTFAHAPFMFAGGERNGPLGTYFQTAKKRNNFDVWLNTSVKRVIREGGHITGVEVEPFRDGGYEGIVPVTKVTGRVILSAGTFGSAKILLRSGIGPEDQLEVVAASEKDGPTMIGNSSWINLPVGYNLDDHLNTDTVISHPDVVFYDFYEAWDDPIESDKNSYLESRTGILAQAAPNIGPMFWEEIVGADGIVRQLQWTARVEGSLGAPNGHTMTMSQYLGRGATSRGRMTITPSLTTIVSDVPYLKDPNDKEAVIQGIINLQNALQNVANLTWLFPNSTITPREYVESMVVSPSNRRSNHWMGTNKLGTDDGRKGGSAVVDLDTRVYGTDNLFVIDASIFPGVPTTNPTSYIVVAAEHASSRILALPDLEPVPKYGQCGGREWTGSFVCADGSTCEYQNEWYSQCL
Km [2]: 52 mM
kcat [2]: 1.3 s⁻¹
kcat/Km [2]: 25 M⁻¹ s⁻¹

B3: Myriococcum thermophilum cellobiose dehydrogenase (CDH, SEQ ID NO: 1) variant N721D (Thermothelomyces myriococcoides; N721D) (protein)
chain: QNNVPNTFTDPDSGITFNTWGLDEDSPQTQGGFTFGVALPSDALTTDASEFIGYLKCARNDESGWCGISLGGPMTNSLLITAWPHEDTVYTSLRFATGYAMPDVYEGDAEITQVSSSVNSTHFSLIFRCKNCLQWSHGGSSGGASTSGGVLVLGWVQAFDDPGNPTCPEQITLQQHDNGMGIWGAQLNTDAASPSYTDWAAQATKTVTGDCEGPTETSVVGVPVPTGVSFDYIVVGGGAGGIPAADKLSEAGKSVLLIEKGFASTANTGGTLGPEWLEGHDLTRFDVPGLCNQIWVDSKGIACEDTDQMAGCVLGGGTAVNAGLWFKPYSLDWDYLFPDGWKYNDVQPAINRALSRIPGTDAPSTDGKRYYQEGFEVLSKGLAAGGWTSVTANNAPDKKNRTFAHAPFMFAGGERNGPLGTYFQTAKKRNNFDVWLNTSVKRVIREGGHITGVEVEPFRDGGYEGIVPVTKVTGRVILSAGTFGSAKILLRSGIGPEDQLEVVAASEKDGPTMIGNSSWINLPVGYNLDDHLNTDTVISHPDVVFYDFYEAWDDPIESDKNSYLESRTGILAQAAPNIGPMFWEEIVGADGIVRQLQWTARVEGSLGAPNGHTMTMSQYLGRGATSRGRMTITPSLTTIVSDVPYLKDPNDKEAVIQGIINLQNALQNVANLTWLFPNSTITPREYVESMVVSPSNRRSDHWMGTNKLGTDDGRKGGSAVVDLDTRVYGTDNLFVIDASIFPGVPTTNPTSYIVVAAEHASSRILALPDLEPVPKYGQCGGREWTGSFVCADGSTCEYQNEWYSQCL
Km [3]: 6.1 mM
kcat [3]: 0.08 s⁻¹
kcat/Km [3]: 13.2 M⁻¹ s⁻¹
